Our source for the Log2 enrichment ratio values is patent US20160376333A1 (University of Washington, published 2016).

The labels stand for the following.
T1: Epstein-Barr virus BHRF1 a.a. 1-161 with C-terminal avi-6his tag (Epstein-Barr virus)
T1 construct: also called EBV BHRF1; BHRF1-biotin
T1 chain: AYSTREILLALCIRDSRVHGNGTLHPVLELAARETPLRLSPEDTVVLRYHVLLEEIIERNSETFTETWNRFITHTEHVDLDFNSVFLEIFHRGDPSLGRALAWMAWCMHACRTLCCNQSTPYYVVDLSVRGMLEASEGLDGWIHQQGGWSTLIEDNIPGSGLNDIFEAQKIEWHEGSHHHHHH

B1: Index 69 (designed binder)
chain: GEQAEKALRRAKRRAKWGLDDAKDILDDIEAEIRWYYPRDEERFKFVDRWIAAMLMVIGDLFNAKREALERALRLMRKGLISQDQFKKFMEKLEKIILWGKFQARKLGREKESEITQG
B2: Index 00 (Design BbpD04) (designed binder)
chain: GADWKKVLDKAKDIAENRVREIKQKLEEFYKKAMKLDLTQEMRRKLMLEWIAAMLMAIGDIFNAIEQAKQEADKLKKAGQVNSQLLDELKRRLEELKEEASRKCHDYGREFQLKLEYG
B3: Index 73 (designed binder)
chain: GKDLDEIIDEARKEMDDDADDGKKKAEKLLKLHAGTNHSQDDFNEAHRRWIAVALEEIGDLFNAALRAWRKIEEEIRKNQRRKEEAEKAKEKVSKEYERASRKAAELGKEFEERVEQG
B4: Index 71 (designed binder)
chain: GERAERARDWAKDQMDDELEKAREKLWKLAFIAFKFYLKLELLFKLMFRWIAIMLEAIGDFFNVWAIAKRWLERYKLQNNIRKEEIEKAKERAKKLYEEAADKAAKLGRFYMKLLTSG
B5: Index 66 (designed binder)
chain: GRSKDDATKEAWERLERLLKEFKEKAEKLRDKAQAHYVYKQFALKVTILWIAWALKLIGDAFNFIEEAEKKMRENRERNLISEDDAREEKRKLEEFARRASKKANKIGDDLDRQLELG
B6: Index 72 (designed binder)
chain: GGSYDDIADLAKKLHKKIAEEAKKKIDELLKEAFEDKPYEEEFAKKMFKWIAIALMAIGDLFNAAELAKRLAEDLKKDNNRDENKAEEAKQRAEQFEKEGAEELAKKGEEAAKKLAGG
B7: Index 05 (designed binder)
chain: GKDADKKKDEAKKKAEWKEREVFERLEKMEWKKRKDSVSKDDARKFTLKWIADDLELIGDLFNLKEEAREVAEDAARNNQITEEQREEDEKDLEKLAKEHSWRAAYRGKLKAKEFWEG
B8: Index 06 (designed binder)
chain: GRSANDILKQFLEMLQEALRKFDEKKNKIEDEWKQFDLSTQRREEATHKWIAAALMAIGDMFNALRWALEEALKAKLKNLQSSDDLKEAIERMMKLMLEKAQEIQEKGRELADKIEQG
B9: Index 74 (designed binder)
chain: GTDHQAFDEWARRELERIVEEARERAERLREWIEQKDASREELTKFFAIWIAISLMAIGDLFNVKEQAKRLAELLEFLGLQRKEEIEKSKKNAEKLADEAMKKASKLDAKVEKELMQG
B10: Index 70 (designed binder)
chain: GLLWLAIILKAEELARKKDDEAEERIRRLEDEKRKGDPGTLGEAERTDRWIAIMLMAIGDAFNVMLEAKEEAEKLEKLGLVHKELLEKVKEEAERLFERSSDNFEEAAKRADDMEKEG
B11: Index 68 (designed binder)
chain: GVSIEWAFDFLENKAEEDAREARRLAQKLAEEFFKHSAREEDRAKLTKKWIAVALMIIGDIFNVEQFTKQQGEEFVKRGLRSEDDFKEYLRKMEEKKEEAERIAKRAKDDMLKARDLG

One assay concerns the target T1, Epstein-Barr virus BHRF1 a.a. 1-161 …. In words: yeast display library, FACS sort at 400 nM BHRF1, deep sequencing.
B1: the Log2 enrichment ratio is -3.99 log2.

As to B2, the Log2 enrichment ratio came out at 3.19 log2.

Regarding B3, the Log2 enrichment ratio was -2.27 log2.

As for B4, the Log2 enrichment ratio was -3.07 log2.

In the case of B5, the Log2 enrichment ratio was -2.49 log2.

With B6, the Log2 enrichment ratio is -3.47 log2.

For B7, the Log2 enrichment ratio is -0.83 log2.

As for B8, the Log2 enrichment ratio is -1.45 log2.

For the molecule B9, the Log2 enrichment ratio was -2.62 log2.

B10: the Log2 enrichment ratio is -3.13 log2.

Consider B11, for which the Log2 enrichment ratio is -3.63 log2.

For a further assay the target is unchanged. In words: yeast display library, FACS sort at 100 nM BHRF1, deep sequencing.
B1: the Log2 enrichment ratio is -3.25 log2.

Regarding B2, the Log2 enrichment ratio worked out at 3.92 log2.

Turning to B3, the Log2 enrichment ratio is -3.14 log2.

Regarding B4, the Log2 enrichment ratio is -2.58 log2.

With B5, the Log2 enrichment ratio is -2.03 log2.

Turning to B6, the Log2 enrichment ratio was -3.34 log2.

Take B7: the Log2 enrichment ratio is -2.5 log2.

Regarding B8, the Log2 enrichment ratio was -2.35 log2.

Take B9: the Log2 enrichment ratio was -3.38 log2.

For B10, the Log2 enrichment ratio was -3.02 log2.

Take B11: the Log2 enrichment ratio is -2.57 log2.
